Data reported in patent US20030175819A1 (BURNHAM INSTITUTE, published 2003).
*: point of attachment. RhodamineB = CCN(CC)c1ccc2c(-c3ccccc3C(=O)*)c3ccc(=[N+](CC)CC)cc-3oc2c1; Ahx = NCCCCCC(=O)O

B1: myc-tagged Bak (from pcDNA3-myc) (other, UniProt Q16611 1-211, looked up, not shown: small tags and cut ends)
chain: MASGQGPGPPRQECGEPALPSASEEQVAQDTEEVFRSYVFYRHQQEQEAEGVAAPADPEMVTLPLQPSSTMGQVGRQLAIIGDDINRRYDSEFQTMLQHLQPTAENAYEYFTKIATSLFESGINWGRVVALLGFGYRLALHVYQHGLTGFLGQVTRFVVDFMLHHCIARWIAQRGGWVAALNLGNGPILNVLVVLGVVLLGQFVVRRFFKS
B2: myc-tagged Bok (from pcDNA3-myc) (other, UniProt Q9UMX3 1-212, looked up, not shown: small tags and cut ends)
chain: MEVLRRSSVFAAEIMDAFDRSPTDKELVAQAKALGREYVHARLLRAGLSWSAPERAAPVPGRLAEVCAVLLRLGDELEMIRPSVYRNVARQLHISLQSEPVVTDAFLAVAGHIFSAGITWGKVVSLYAVAAGLAVDCVRQAQPAMVHALVDCLGEFVRKTLATWLRRRGGWTDVLKCVVSTDPGLRSHWLVAALCSFGRFLKAAFFVLLPER
B3: myc-tagged Bcl-B (from pcDNA3-myc) (other, UniProt Q9HD36 1-204, looked up, not shown: small tags and cut ends)
chain: MVDQLRERTTMADPLRERTELLLADYLGYCAREPGTPEPAPSTPEAAVLRSAAARLRQIHRSFFSAYLGYPGNRFELVALMADSVLSDSPGPTWGRVVTLVTFAGTLLERGPLVTARWKKWGFQPRLKEQEGDVARDCQRLVALLSSRLMGQHRAWLQAQGGWDGFCHFFRTPFPLAFWRKQLVQAFLSCLLTTAFIYLWTRLL
B4: rhodamine-conjugated synthetic purified Humanin peptide (peptide)
peptide: {RhodamineB-Ahx}-MAPRGFSCLLLLTSEIDLPVKRRA-NH2
notes: also called rhodamine-HN; rhodamine-conjugated HN peptide

Assays:
[1] = molecular target: T1, GFP-HN (Green Fluorescent Protein fused to wild-type, full-length Humanin, cytosolic / nuclear-encoded form) (human, UniProt P42212 1-238 = GFP); test: co-immunoprecipitation from HEK293T cells (anti-GFP IP, anti-myc blot)
T1 construct: Humanin cDNA in the XhoI/HindIII sites of GFP-C1 (pEGFP-C1), so GFP is N-terminal; also called GFP-HN(N); GFP-Humanin

[2] = molecular target: T2, purified recombinant full-length Bax protein (from E. coli BL21 harboring pTYB1-Bax) (human, UniProt Q07812 1-192); test: fluorescence polarization assay, various concentrations of purified recombinant Bax with 40 nM rhodamine-conjugated Humanin peptide
T2 construct: also called recombinant Bax
T2 sequence (Q07812 whole entry): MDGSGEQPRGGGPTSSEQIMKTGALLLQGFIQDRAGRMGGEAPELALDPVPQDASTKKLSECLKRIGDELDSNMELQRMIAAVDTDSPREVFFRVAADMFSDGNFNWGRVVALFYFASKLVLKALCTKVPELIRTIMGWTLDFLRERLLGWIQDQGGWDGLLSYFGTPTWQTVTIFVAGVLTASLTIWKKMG
Method: (§1) In this example, the in vitro binding assay is a fluorescence polarization assay (FPA). For this experiment, full-length Bax protein was produced in bacteria and purified. […] The extent of peptide binding was then monitored by measuring polarization of monochromatic light passed through the sample, where peptide binding to the bulkier protein slows the rate of peptide tumbling in solution, enhancing the polarization effect.
(§2) Fluorescence Polarization Assays were performed as follows. […] Fluorescence polarization was measured using an AnalystTM AD Assay Detection System (LJL Biosystem, Sunnyvale, Calif.).

[3] = molecular target: Recombinant Bcl-XL protein (UniProt Q07817 1-211); test: fluorescence polarization assay
Sequence of Recombinant Bcl-XL protein (Q07817 1-211): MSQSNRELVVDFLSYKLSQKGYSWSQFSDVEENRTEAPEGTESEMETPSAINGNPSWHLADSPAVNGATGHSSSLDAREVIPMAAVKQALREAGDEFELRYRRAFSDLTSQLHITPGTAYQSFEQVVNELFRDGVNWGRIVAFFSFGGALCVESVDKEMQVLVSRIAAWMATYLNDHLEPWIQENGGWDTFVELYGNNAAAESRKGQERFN
Method: as §1, §2

Row | Binder | binding result [1] | Kd [2] [nM] | binding result [3]
1 | B1 | no binding |  | 
2 | B2 | no binding |  | 
3 | B3 | no binding |  | 
4 | B4 |  | ~2 | no binding
